Drawing on patent US20230227520A1 (MAX PLANCK GESELLSCHAFT ZUR F RDERUNG DER WISSENSCHAFTEN E V, published 2023), this text covers Kd, koff and kon for 1 molecule.

The term Kd denotes the equilibrium constant for the complex coming apart. In general, koff refers to the rate constant with which the complex falls apart. The kon is the second-order rate constant of association.

Assay [1] concerns the target T1, G-CSF Receptor (G-CSFR) (R&D systems 381-GR-050/CF), recombinant human (human, UniProt Q99062 25-627, limits assumed).
T1 construct: Bought protein, amine-coupled to a CM5 chip; also called rhG-CSFR; human G-CSF receptor
T1 sequence (looked up): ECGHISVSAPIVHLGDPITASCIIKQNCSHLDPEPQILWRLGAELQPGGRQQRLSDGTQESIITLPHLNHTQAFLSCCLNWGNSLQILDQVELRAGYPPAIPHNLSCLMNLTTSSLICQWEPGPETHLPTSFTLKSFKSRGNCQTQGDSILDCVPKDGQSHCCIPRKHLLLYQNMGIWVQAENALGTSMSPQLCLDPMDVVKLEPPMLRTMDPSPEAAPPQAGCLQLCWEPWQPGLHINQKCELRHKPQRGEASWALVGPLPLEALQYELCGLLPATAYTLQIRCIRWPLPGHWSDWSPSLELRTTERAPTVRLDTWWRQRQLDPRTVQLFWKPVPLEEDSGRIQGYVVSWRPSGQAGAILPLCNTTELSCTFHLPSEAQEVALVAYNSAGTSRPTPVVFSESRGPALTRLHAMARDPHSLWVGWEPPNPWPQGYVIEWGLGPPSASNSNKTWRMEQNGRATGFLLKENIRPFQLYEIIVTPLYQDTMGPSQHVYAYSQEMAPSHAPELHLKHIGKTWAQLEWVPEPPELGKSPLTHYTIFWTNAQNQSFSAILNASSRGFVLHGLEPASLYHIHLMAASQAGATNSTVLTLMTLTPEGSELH
The assay is described as follows: SPR, Biacore X100, G-CSFR amine-coupled on CM5, 2nd order kinetics model. As for the experimental part:
(§1) Single-cycle kinetics experiments were performed on a Biacore X100 system (GE Healthcare Life Sciences). G-CSF Receptor (G-CSFR) (R&D systems 381-GR-050/CF) was diluted to 50 μg/ml in 10 mM acetate buffer pH 5.0 and immobilized on the surface of a CM5 sensor chip (GE Healthcare 29149604) using standard amine coupling chemistry. The designs and rhG-CSF (USP RS Filgrastim, Sigma-Aldrich 1270435) were diluted in running buffer (10 mM HEPES, 150 mM NaCl, 3.4 mM EDTA, 0.005% v/v Tween-20). Analyses were conducted at 25° C. at a flow rate of 30 μl/min. Five sequential 10-fold increasing concentrations of the sample solution (for the designs from 0.5 nM to 50 μM, and for rhG-CSF from 0.05 to 500 nM) were injected over the functionalized sensor chip surface for 180 s, followed by a 180 s dissociation with running buffer. At the end of each run, the sensor surface was regenerated with a 240 s injection of 10 mM glycine-HCl pH 2.0. Each experiment was performed two times for rhG-CSF, Boskar3, Boskar4, diSohair2, Moevan, and Moevan_t2. Association rate (ka), dissociation rate (kd), and equilibrium dissociation (Kd) constants were initially obtained by global fitting of the experimental reference-subtracted data to a 1:1 interaction model using the Biacore X100 evaluation software (v.2.0.1). To evaluate if a kinetics model that depends on double the analyte stoichiometry improves the goodness of fit to the data, the following rate integral was used: […]

Assay [2] addresses T1, G-CSF Receptor (G-CSFR) (R&D systems …). The assay is described as follows: SPR, Biacore X100, G-CSFR amine-coupled on CM5, 2nd order kinetics model, second run. As for the experimental part: (§2) To obtain a more detailed picture on the nature of the binding, the inventors fitted the highest concentration sensorgram curves using higher order kinetics models. […] While this higher-order interaction model better explains the data than a 1:1 binding model, a clear deviation remained for rhG-CSF sensorgrams.
(§3) Single-cycle kinetics experiments were performed on a Biacore X100 system (GE Healthcare Life Sciences). G-CSF Receptor (G-CSFR) (R&D systems 381-GR-050/CF) was diluted to 50 μg/ml in 10 mM acetate buffer pH 5.0 and immobilized on the surface of a CM5 sensor chip (GE Healthcare 29149604) using standard amine coupling chemistry. The designs and rhG-CSF (USP RS Filgrastim, Sigma-Aldrich 1270435) were diluted in running buffer (10 mM HEPES, 150 mM NaCl, 3.4 mM EDTA, 0.005% v/v Tween-20). Analyses were conducted at 25° C. at a flow rate of 30 μl/min. Five sequential 10-fold increasing concentrations of the sample solution (for the designs from 0.5 nM to 50 μM, and for rhG-CSF from 0.05 to 500 nM) were injected over the functionalized sensor chip surface for 180 s, followed by a 180 s dissociation with running buffer. At the end of each run, the sensor surface was regenerated with a 240 s injection of 10 mM glycine-HCl pH 2.0. Each experiment was performed two times for rhG-CSF, Boskar3, Boskar4, diSohair2, Moevan, and Moevan_t2. Association rate (ka), dissociation rate (kd), and equilibrium dissociation (Kd) constants were initially obtained by global fitting of the experimental reference-subtracted data to a 1:1 interaction model using the Biacore X100 evaluation software (v.2.0.1).
For orientation: In SPR one partner is held on a chip, and binding of the other changes the refractive index at the surface.

The target is the same in assay [3]. The experiment in a line: SPR, Biacore X100 single-cycle kinetics, G-CSFR amine-coupled on CM5, 1:1 binding model. As for the experimental part: as §1
Assay [4] shares this target. Described as above. As for the experimental part: To test whether the grafted epitope residues mediate binding of the designs to the G-CSF receptor, the inventors also performed SPR measurements for the Moevan and diSohair2 initial design templates (Moevan_control and diSohair_control, respectively), and no binding was observed (FIG. 20C,F).
as §1
The source holds these as a separate data set.

Assay [5] shares this target. The assay is described as follows: SPR, Biacore X100 single-cycle kinetics, G-CSFR amine-coupled on CM5, 1:1 binding model, second run. Here is the method:
as §1

Assay [6] has the same target. The assay is described as follows: SPR, second-order reaction model, value as told in the text; second-order reaction model, highest concentration sensorgram. Here is the method: as §2, §3
The target is the same in assay [7]. The experiment in a line: SPR (Biacore), G-CSFR immobilised on the chip, rhG-CSF 4 nM - 64 nM as analyte, five traces with binding model fit [panel A].
The target is the same in assay [8]. The assay is described as follows: SPR, Biacore X100 single-cycle kinetics, G-CSFR amine-coupled on CM5, 1:1 binding model; Table 10 series (Moevan/diSohair2 comparison), 1:1 binding model.

B1: rhG-CSF (recombinant human G-CSF; USP RS Filgrastim, Sigma-Aldrich 1270435) (ligand)
chain: TPLGPASSLPQSFLLKCLEQVRKIQGDGAALQEKLCATYKLCHPEELVLLGHSLGIPWAPLSSCPSQALQLAGCLSQLHSGLFLYQGLLQALEGISPELGPTLDTLQLDVADFATTIWQQMEELGMAPALQPTQGAMPAFASAFQRRAGGVLVASHLQSFLEVSYRVLRHLAQP
Consider B1, for which the Kd turned out to be 82 nM in assay [1]; 88 nM in assay [2]; 0.36 nM in assay [3]; 0.41 nM in assay [5]; 86 nM in assay [6]; 1.4 nM in assay [7]. The Kd in assay [8] is 1.1 nM. For the same molecule, the koff was found to be 0.0009 s⁻¹ in assay [1]; 0.00084 s⁻¹ in assay [2]; 0.00028 s⁻¹ in assay [3]; 0.00049 s⁻¹ in assay [4]; 0.00026 s⁻¹ in assay [5]; 0.0004 s⁻¹ in assay [7]. For the same molecule, the kon in assay [1] was determined as 11000 M⁻¹ s⁻¹; in assay [2], 10000 M⁻¹ s⁻¹; in assay [3] it was 790000 M⁻¹ s⁻¹; in assay [4], 300000 M⁻¹ s⁻¹; in assay [5], 640000 M⁻¹ s⁻¹; in assay [7] it was 290000 M⁻¹ s⁻¹.
